Laboratory results: the nanobody polyreactivity screen of Harvey et al. (2022)

Experiment: yeast display, Sf9 membrane polyspecificity reagent, FACS + sequencing; frameworks hold sequencing errors
Outline: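 Galactose induction of a Saccharomyces cerevisiae BJ5465 synthetic nanobody display library ran 36–48 hours. The cells were then stained for 1 hour at 4 °C with 10% biotinylated, detergent-solubilized Sf9 membrane reagent, pulled down on streptavidin microbeads and FACS-sorted into low and high (top ~1%) gates on expression and reagent-binding fluorescence. Labels for polyreactivity follow the gate of origin.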

## QVQLVESGGGLVQAGGSLRLSCAASGSTFSHYTMGWSRQAPGKERELVAAINYGGASTYYADSVKGRFTISRDNAKNTVFLHMNSLKPEDTSVYYCAAANRPSEQDNYWGQGTQVTVSS
  polyreactivity (PSR sort gate): low polyreactivity

## QVQLVESGAGLVQAGGSLRLSCAASGRIFLGNAMGWYRQAPGKERELVAAISRSGVTRYYADSVKGRFTISRYNGKNTVYLQMNSLKPEDTAVYYCAVERYDRFDHYYWVQGTQVTVSS
  polyreactivity (PSR sort gate): low polyreactivity

## QLQLVESGGGLVQAGGSLRLSCAASGRTFPGNAMGWYRQEPGKERELVATITWSSGRTHYADSVKGRFTISRDNAKNTVYLQMNSLKPEDTAVYYCAAKWIVAVGGFYYWGQGTQVTVSS
  polyreactivity (PSR sort gate): low polyreactivity

## QVQLVESGGGLVQAGGSLRLSCAASGSIFRGYTLGWYRQAPGKERELVAAISTRGGSTYYADSVKGRFTISRDNANNTVYLQMNSLKPEDTAVYYCNARSRGRASGYDYWGQVTQVTVSS
  polyreactivity (PSR sort gate): high polyreactivity

## QVQLVESGGGLVQAGGSLRLSCAASGSIFPRYGMGLYRQAPGKERELVAAITTGGNTYYADSVKGRFTISRDNAKNTVYLQMNSLKPEDTAVYYCNARAVTPWFGFYYWGQGTQVTVSS
  polyreactivity (PSR sort gate): low polyreactivity

## QVQLVESGGGLVQAGGSLRLSCAASGSTFGYYAMGWYRQAPGKERELVAAITSGGSKKYADSVKGRFTISRDNAKNTVYLQMNSLKPEDTAVYYCATSRYFGYGYWGQGTQVTVSS
  polyreactivity (PSR sort gate): low polyreactivity

## QVQLVESGGGLVQAGGSLRLSCAASGRTFRVYAMGWYRQAPGKERELVAAINGGGSTNYADSVKGRFTISRDNAKNTVYVQMNSLKPEDTAVYYCNATGRRSKRIYDYWGQGTQVTVSS
  polyreactivity (PSR sort gate): high polyreactivity

## HVELVEAGGGVVQAGGSLRLSCAASGRIFRYYVMGWYRPAPGKEREFVASISGRGASTYYADSVKGRFTISRDNAKNTVYIKRNSLKPEDTAVYYCNADVWLLSYVPEYDYWGQGTQVTVSS
  polyreactivity (PSR sort gate): low polyreactivity

## QVQHVESGGGLVQAGGSLRLSCAASGRIINTYAMGWYRPAPGKERELVAAISWSGGSTYYADSVKGRFTISRDNAKNTVDLQMNSLKPEDTAVYYCNAAYYGYENLSKRGYWGQGTQVTVSS
  polyreactivity (PSR sort gate): high polyreactivity

## QVQLGESGGGLVQAGGSLRLSCAASGRTFYGYPMGWYRQAPGKERELVAAISRNGASTFYADSVKGRFTISRDNAKNTVYLQMNSLKPEDTAVYYCNARSWRHTDTSFEYWGQGTQVTVSS
  polyreactivity (PSR sort gate): high polyreactivity

## QVQIVESGGGLVQAGGSLRVSCAASGSIYTYNGMGWYRQAPWKERELDAAISASGGRTYYADSVKGRYTISRDNAKNTVYLQMNRLKPEDNAVYYCAARILVSGLSRFDYWGQGTQVTVSA
  polyreactivity (PSR sort gate): high polyreactivity

## QVQLVESGGGLVQAGGSLRLSCAASGSIFLDNAMGWYRQAPGKERELVAAISKSGTRTYYADSVKGRFTISRDNAKTTVYLQMNSLKPEDTAVFYCNVVPKQAKRVELIGYYYWGQGTQVTVSS
  polyreactivity (PSR sort gate): high polyreactivity

## QVQLVESGGGLVQAGGSLRLSCAASGSIFYWYAMGWYRQAPGKERELVAAIDISDDTYYADSVKGRFTISRDNAKNTVYLQMNSLKPEDTAVYYCAARTTRWFYEYDWGQGTQVTVSS
  polyreactivity (PSR sort gate): high polyreactivity

## QVQLVESCGGLVQAGGSLRLSCAASVSTFLFYAMGWDRQAPRKERELVAAITSGDSTNYADSVKGRFTISRDNAKNTVYLQMNSLKPEDTAVYYCAASRFGAYYWGQGTQVTVSS
  polyreactivity (PSR sort gate): high polyreactivity

## QVQLVESGGCLVQAGGSLRLSCAASGSLFKPYAMGWYIQAPGKEREFVAAINRGGTSTYYADSVKGRFTIARDNAKNTVFLQMKSLKPEDTAVYYCNAESPYYADGDTVRDDYWGQGTQVTVSS
  polyreactivity (PSR sort gate): low polyreactivity

## QVQLVESGGGLVQAGGSLRLSCAASGITLGRYAMGWYRQAPGKERELVAAISRSGGSTYYADSVKGRFTISRANAKTTVYLQMNSLKPEDTAVYYCNRRVYPTSDYDYWGQGTQVTVSS
  polyreactivity (PSR sort gate): high polyreactivity

## QVQLVESGVGLVQAGGSLRLSCAASGRIFTGYAMGWYRQAPGKERELVAAITSSGDGTNYADSVKGRFTISRDNAKNTVYLQMNSLKPEDTAVYYCNADGSYKMDWGQGTQVTVSS
  polyreactivity (PSR sort gate): low polyreactivity

## QVQLVESGGGLVQAGGSLRLSCAASGRTFYRNAMGWYRQAPGKERELVAAITRGGRTYYADSVKGRFTISRDNAKNTVYLQMNSLKPEDTAVYYCNAVSYSSTLASKIPDDYWGQGTQVTVSS
  polyreactivity (PSR sort gate): high polyreactivity

## QVQLVESCGGLVQAGGSLRLSCAASGSIFPFNAMGWYRQAPGKQRELVAAITRSGGSTYYADSVKGRITISRYIAKNSVYLQMNSLKPQDTAVYYCATDPEWPLPAYYYWGQGTQVTVSS
  polyreactivity (PSR sort gate): low polyreactivity

## QVQLVESGGGLVQAGGSLRLSCAASVRTFYYYAMGWYRQAPGKERELVARISRGGSTNYADSVKGRFTISRDNAKNTVYLLMNSLKTEDTAVYYCAKSISYTGRYWGYDYWGQGTQVTVSS
  polyreactivity (PSR sort gate): high polyreactivity

## QVQLVESGGGLVQAGGSLRLSCAASGSTISSYAMGWYRPAPGKERELVAANTSGGSTYYADSLKGRFTISRDNAKNSVSLQMNSLKPEDTAVYYCDLGSTTMDYWGQGTQVTVSS
  polyreactivity (PSR sort gate): low polyreactivity

## QVQLVESGGGLVQAGGSLRLSCAASGSTFWWNTMGWYRQAPGKESELVADIRTSGGGTYYADSVKGRFTISRDNAKNTVYLQMNSLKPEDTAVYYCNADPKWEMGSWGQGTQVTVSS
  polyreactivity (PSR sort gate): low polyreactivity

## QVQLEESGGGLVQAGGSLRLSCAASGRTFSSYAMVWYRQAPGKERELVAAINSGGSTNYADSVKGRFTISRDNAKNTVYLQMNSLKPEDTAVYYCNAVTFWGLGYDYWGQGTQVTVSS
  polyreactivity (PSR sort gate): low polyreactivity

## QVQLVESGGGLVQAGGSLRLSCAASGNIFATYAMGWYRQAPGKESELVAAITSSGGRTYYADSVKGRFTISRDNAKISVYLQMNSLKPEDTAVYNCNAVYSLYYTRYNYWGHGTQVTVSS
  polyreactivity (PSR sort gate): high polyreactivity

## QVQLVESGGGLVQAGGSLRLSCAASGRIFYVYAMGWYRQAPGKERELVATITYRGDTDYADSVKGRFTSSRDNAKNTVYLQMNSRKPEDTAVYYCAKDFEAGDDYFAYDYWGQGTQVTVSS
  polyreactivity (PSR sort gate): low polyreactivity

## QVQLVESGGGLVQAGGSLRLSCAAYGSTFRRNTMGWYRQAPGKERELVAGISSSGGSTYYADSVKGRFTISRDTAMNTVYLQMNSLKPEDTAVYYCAARYYVSYVGYNYWGQCTQVTVSS
  polyreactivity (PSR sort gate): high polyreactivity

## QEQLVESGGGLVQAGGSLRLSCDASGRTLSRYTMGWYRQPPGQETELVAAISTSGSTYYADSVKGRFTISRDNAKNPVYLQMNSVKPDDTGVYYCNAVGLYLHYATGYDYWGQGRQVTVSS
  polyreactivity (PSR sort gate): high polyreactivity

## QVQLVESGGGLVQAGGSLRLSCAASGRTFQDNAMGWNRQAPGKETELVAAISWRGGSTNYADSVKGRFTISRDHAKNTVYLQMNSLKPEHTAVYYCNRDPRKYGKLDYWGQGTQVTVSS
  polyreactivity (PSR sort gate): low polyreactivity

## QVQLVESGGGLVQAGGSLRLSCAASGFTFASNAMGWYRPAPWKERELVAGISRTGTTTYYADSVKGRFTISRDNAKNTVYLQMNSLKPEDTAVYYCAASKQAVKYRSQRYYYWGQGTQVTVSS
  polyreactivity (PSR sort gate): high polyreactivity

## QVQLVESGGGLVQAGGSLRLSCAASGSTAENVMGWYRQAPGKERELVAAISSRGGSTYYADSVKGRFTISRDNAKNTVYLQMNSLKPEDTAVYYCAAEYVSHFSGDRYDYWGQGTQVTVSS
  polyreactivity (PSR sort gate): low polyreactivity

## QVQLVESGGGLVQAGGSLRLSCAASGSNFGFYAMGWYRQAPGKERELVAAIDSGDSTNYADSVKGRFTISRDNAKNTVYLQMNSLKPEDTAVYYCNAEAWWYFWFDYWGQGTQVTVSS
  polyreactivity (PSR sort gate): low polyreactivity

## QVQLVESGGGLVQAGGSLRLSCAASGSTFSDYAMGWYRQEPGKERELVAAISSDGSTYYADSVKGRYTISRDNAKNTVYLQMNSLKPEDTAVYYCAKDVILVWPYATGRDFWGQGTQVTVSS
  polyreactivity (PSR sort gate): low polyreactivity

## QVQLVESGGGLVQAGGSLRLSCAASGSIFWSYAMGWYRQAPGKERELVAAINWSGGRTYYADSVKGRFTISRDNAQNTVYLQMNSLKPEDTAVYYCNAPVHTAQGDEYDYWGQGTQVTVSS
  polyreactivity (PSR sort gate): high polyreactivity

## QVQLVESGGGLVQAGGSLRLSCAASGRTFSLDAMGWYRQAPWKERELVASITDSTGGSTYYADSVKGRFTISRDNAKNTVYLQMNSLKPEDTAVYYCAAQDSQYSDYQWWFGYWGQGTQVTVSS
  polyreactivity (PSR sort gate): low polyreactivity

## QVQVVESGGGLVQAGGSLRLSCAASGSTFVIYDMGWYRQAPGKERELVAVITIIGGSTYYADAVKGRFTISRDNAKNTVYLELNSLKPEDTAVYDCAVEVGYTDSPYSYDYWGQGTQVTVSS
  polyreactivity (PSR sort gate): low polyreactivity

## QVQLVESGGGLVQAGGSLRLSCAASGFTFDSNVMGWYRQAPGKEREVVAAITGDDTTYYADSVKGRFTISRDNAKNTVYLQMNSLKPEDTAVYYCAADETESLEYTAYDMYYWGQGTQVTVSS
  polyreactivity (PSR sort gate): low polyreactivity

## QVQLVESGVGLVQAGGSLRLSCAASGRTFISNVMGWYRQAPGKERELVAAISGSSGSTRYADSVKGRFTISRDNAKNTVYLQMISLKPEDTAVYYCAARAPWPKWGYYYWGQGTQVTVSS
  polyreactivity (PSR sort gate): high polyreactivity

## QVQLVESGGRLVQAGGSLRLSCAASGSTFGWYTMGWYRQAPGKERELVAAITSRGTRTSYADSVKARFTISRDNAKNTVYLQMNSLKPEDTAVYYCAARVFRGLGEYYWGQGTQVTVSS
  polyreactivity (PSR sort gate): high polyreactivity

## QHQLEESGGGLVQAGGSLRLSFAAYGFIFGRYTMGWYRQAPVKERELVAAISSRGGSTYYADSVKGGFTISRDYAKYTVYLQMNSLNPEDTAVYSCNALRRPSSEGRDYWGQGTQVTVSS
  polyreactivity (PSR sort gate): high polyreactivity

## QVQLQDSVGCLVQAGGSLRLSCAASGSISIYGYMGWYRQAPGNERELVAAITAGGSTYYADSVKGRFTISRDNAKNTVYLLMKSLKPEDTAVYYCAPYEQRVYDLHYWGQGTQVTVSS
  polyreactivity (PSR sort gate): high polyreactivity

## QVQLVESGGGLVQAGGSLRLSCAASGIIFYFYAMGWYRQAPGKERELVADITSGDRTNYADSVKGRFTISRDNAKNTVYLQMNSLKPEDTAVYYCAAGTSKPTPIYGYWGQGTQVTVSS
  polyreactivity (PSR sort gate): low polyreactivity

## QVQLVESGGGLVQAGGSLRLSCAASGRIFNYYAMGSYRQAPGKERDLVAAITSRGGSTYYADSVKGRFTISRDNAKNTVYLQMNSLNPEDTAVYYCNTRVWYPGTIHPVDYWGQGTQVTVSS
  polyreactivity (PSR sort gate): low polyreactivity

## QVQLEESGGALFQAGGSIRLSCAASGYTFDAYAMGWYRQAPGKERELVADINYSVGSTTYADSVKGRFTISRDNAKNTVYLQMNSLKTEDTAVYYCAAQGTWYAWDYDYWGQGTQVTVSS
  polyreactivity (PSR sort gate): low polyreactivity
